Measurements published in patent US20150342993A1, “COMPOSITIONS AND METHODS FOR IMMUNOTHERAPY” (MEMORIAL SLOAN-KETTERING CANCER CENTER, published 2015).

Target: prostate-specific membrane antigen (Homo sapiens (Human), UniProt Q04609)
Experiment: cell-based or functional assay

B1: P28BB (CAR)
chain: EVQLQQSGPELVKPGTSVRISCKTSGYTFTEYTIHWVKQSHGKSLEWIGNINPNNGGTTYNQKFEDKATLTVDKSSSTAYMELRSLTSEDSAVYYCAAGWNFDYWGQGTTVTVSSGGGGSGGGGSGGGGSDIVMTQSHKFMSTSVGDRVSIICKASQDVGTAVDWYQQKPGQSPKLLIYWASTRHTGVPDRFTGSGSGTDFTLTITNVQSEDLADYFCQQYNSYPLTFGAGTMLDLKRAAAIEVMYPPPYLDNEKSNGTIIHVKGKHLCPSPLFPGPSKPFWVLVVVGGVLACYSLLVTVAFIIFWVRSKRSRLLHSDYMNMTPRRPGPTRKHYQPYAPPRDFAAYRSRFSVVKRGRKKLLYIFKQPFMRPVQTTQEEDGCSCRFPEEEEGGCE
B1 was tested. Which “long-term T cell proliferation (absolute T cell counts over 31 days, no exogenous cytokine)” value did it give?
Its value is 58 fold expansion.
